Molecular target: T1, Tra1 (S. cerevisiae, UniProt P38811 1-3744)
T1 construct: Tra1, S. cerevisiae, largest subunit of SAGA (433 kDa), endogenous subunit of the purified native complex; Subunit of native SAGA purified through a 3xFLAG tag; The complex was mildly cross-linked with glutaraldehyde (GraFix) before cryo-EM; also called Tra1 module; head; source: endogenous, S. cerevisiae, purified as part of native SAGA (anti-FLAG M2 resin, FLAG peptide elution, GraFix)
Assay: cryo-EM structure; native S. cerevisiae SAGA purified by anti-FLAG and GraFix (glycerol/glutaraldehyde gradient), 40 mM HEPES pH 7.4, 150 mM NaCl, 0.01% Tween-20, vitrified on lacey carbon grids with graphene oxide; consensus map 3.1 Å, Tra1 2.9 Å, core 3.2 Å; published models (PDB 6t9j, 6t9k) fitted into the map
Details: both partners purified

T1 sequence (P38811 whole entry): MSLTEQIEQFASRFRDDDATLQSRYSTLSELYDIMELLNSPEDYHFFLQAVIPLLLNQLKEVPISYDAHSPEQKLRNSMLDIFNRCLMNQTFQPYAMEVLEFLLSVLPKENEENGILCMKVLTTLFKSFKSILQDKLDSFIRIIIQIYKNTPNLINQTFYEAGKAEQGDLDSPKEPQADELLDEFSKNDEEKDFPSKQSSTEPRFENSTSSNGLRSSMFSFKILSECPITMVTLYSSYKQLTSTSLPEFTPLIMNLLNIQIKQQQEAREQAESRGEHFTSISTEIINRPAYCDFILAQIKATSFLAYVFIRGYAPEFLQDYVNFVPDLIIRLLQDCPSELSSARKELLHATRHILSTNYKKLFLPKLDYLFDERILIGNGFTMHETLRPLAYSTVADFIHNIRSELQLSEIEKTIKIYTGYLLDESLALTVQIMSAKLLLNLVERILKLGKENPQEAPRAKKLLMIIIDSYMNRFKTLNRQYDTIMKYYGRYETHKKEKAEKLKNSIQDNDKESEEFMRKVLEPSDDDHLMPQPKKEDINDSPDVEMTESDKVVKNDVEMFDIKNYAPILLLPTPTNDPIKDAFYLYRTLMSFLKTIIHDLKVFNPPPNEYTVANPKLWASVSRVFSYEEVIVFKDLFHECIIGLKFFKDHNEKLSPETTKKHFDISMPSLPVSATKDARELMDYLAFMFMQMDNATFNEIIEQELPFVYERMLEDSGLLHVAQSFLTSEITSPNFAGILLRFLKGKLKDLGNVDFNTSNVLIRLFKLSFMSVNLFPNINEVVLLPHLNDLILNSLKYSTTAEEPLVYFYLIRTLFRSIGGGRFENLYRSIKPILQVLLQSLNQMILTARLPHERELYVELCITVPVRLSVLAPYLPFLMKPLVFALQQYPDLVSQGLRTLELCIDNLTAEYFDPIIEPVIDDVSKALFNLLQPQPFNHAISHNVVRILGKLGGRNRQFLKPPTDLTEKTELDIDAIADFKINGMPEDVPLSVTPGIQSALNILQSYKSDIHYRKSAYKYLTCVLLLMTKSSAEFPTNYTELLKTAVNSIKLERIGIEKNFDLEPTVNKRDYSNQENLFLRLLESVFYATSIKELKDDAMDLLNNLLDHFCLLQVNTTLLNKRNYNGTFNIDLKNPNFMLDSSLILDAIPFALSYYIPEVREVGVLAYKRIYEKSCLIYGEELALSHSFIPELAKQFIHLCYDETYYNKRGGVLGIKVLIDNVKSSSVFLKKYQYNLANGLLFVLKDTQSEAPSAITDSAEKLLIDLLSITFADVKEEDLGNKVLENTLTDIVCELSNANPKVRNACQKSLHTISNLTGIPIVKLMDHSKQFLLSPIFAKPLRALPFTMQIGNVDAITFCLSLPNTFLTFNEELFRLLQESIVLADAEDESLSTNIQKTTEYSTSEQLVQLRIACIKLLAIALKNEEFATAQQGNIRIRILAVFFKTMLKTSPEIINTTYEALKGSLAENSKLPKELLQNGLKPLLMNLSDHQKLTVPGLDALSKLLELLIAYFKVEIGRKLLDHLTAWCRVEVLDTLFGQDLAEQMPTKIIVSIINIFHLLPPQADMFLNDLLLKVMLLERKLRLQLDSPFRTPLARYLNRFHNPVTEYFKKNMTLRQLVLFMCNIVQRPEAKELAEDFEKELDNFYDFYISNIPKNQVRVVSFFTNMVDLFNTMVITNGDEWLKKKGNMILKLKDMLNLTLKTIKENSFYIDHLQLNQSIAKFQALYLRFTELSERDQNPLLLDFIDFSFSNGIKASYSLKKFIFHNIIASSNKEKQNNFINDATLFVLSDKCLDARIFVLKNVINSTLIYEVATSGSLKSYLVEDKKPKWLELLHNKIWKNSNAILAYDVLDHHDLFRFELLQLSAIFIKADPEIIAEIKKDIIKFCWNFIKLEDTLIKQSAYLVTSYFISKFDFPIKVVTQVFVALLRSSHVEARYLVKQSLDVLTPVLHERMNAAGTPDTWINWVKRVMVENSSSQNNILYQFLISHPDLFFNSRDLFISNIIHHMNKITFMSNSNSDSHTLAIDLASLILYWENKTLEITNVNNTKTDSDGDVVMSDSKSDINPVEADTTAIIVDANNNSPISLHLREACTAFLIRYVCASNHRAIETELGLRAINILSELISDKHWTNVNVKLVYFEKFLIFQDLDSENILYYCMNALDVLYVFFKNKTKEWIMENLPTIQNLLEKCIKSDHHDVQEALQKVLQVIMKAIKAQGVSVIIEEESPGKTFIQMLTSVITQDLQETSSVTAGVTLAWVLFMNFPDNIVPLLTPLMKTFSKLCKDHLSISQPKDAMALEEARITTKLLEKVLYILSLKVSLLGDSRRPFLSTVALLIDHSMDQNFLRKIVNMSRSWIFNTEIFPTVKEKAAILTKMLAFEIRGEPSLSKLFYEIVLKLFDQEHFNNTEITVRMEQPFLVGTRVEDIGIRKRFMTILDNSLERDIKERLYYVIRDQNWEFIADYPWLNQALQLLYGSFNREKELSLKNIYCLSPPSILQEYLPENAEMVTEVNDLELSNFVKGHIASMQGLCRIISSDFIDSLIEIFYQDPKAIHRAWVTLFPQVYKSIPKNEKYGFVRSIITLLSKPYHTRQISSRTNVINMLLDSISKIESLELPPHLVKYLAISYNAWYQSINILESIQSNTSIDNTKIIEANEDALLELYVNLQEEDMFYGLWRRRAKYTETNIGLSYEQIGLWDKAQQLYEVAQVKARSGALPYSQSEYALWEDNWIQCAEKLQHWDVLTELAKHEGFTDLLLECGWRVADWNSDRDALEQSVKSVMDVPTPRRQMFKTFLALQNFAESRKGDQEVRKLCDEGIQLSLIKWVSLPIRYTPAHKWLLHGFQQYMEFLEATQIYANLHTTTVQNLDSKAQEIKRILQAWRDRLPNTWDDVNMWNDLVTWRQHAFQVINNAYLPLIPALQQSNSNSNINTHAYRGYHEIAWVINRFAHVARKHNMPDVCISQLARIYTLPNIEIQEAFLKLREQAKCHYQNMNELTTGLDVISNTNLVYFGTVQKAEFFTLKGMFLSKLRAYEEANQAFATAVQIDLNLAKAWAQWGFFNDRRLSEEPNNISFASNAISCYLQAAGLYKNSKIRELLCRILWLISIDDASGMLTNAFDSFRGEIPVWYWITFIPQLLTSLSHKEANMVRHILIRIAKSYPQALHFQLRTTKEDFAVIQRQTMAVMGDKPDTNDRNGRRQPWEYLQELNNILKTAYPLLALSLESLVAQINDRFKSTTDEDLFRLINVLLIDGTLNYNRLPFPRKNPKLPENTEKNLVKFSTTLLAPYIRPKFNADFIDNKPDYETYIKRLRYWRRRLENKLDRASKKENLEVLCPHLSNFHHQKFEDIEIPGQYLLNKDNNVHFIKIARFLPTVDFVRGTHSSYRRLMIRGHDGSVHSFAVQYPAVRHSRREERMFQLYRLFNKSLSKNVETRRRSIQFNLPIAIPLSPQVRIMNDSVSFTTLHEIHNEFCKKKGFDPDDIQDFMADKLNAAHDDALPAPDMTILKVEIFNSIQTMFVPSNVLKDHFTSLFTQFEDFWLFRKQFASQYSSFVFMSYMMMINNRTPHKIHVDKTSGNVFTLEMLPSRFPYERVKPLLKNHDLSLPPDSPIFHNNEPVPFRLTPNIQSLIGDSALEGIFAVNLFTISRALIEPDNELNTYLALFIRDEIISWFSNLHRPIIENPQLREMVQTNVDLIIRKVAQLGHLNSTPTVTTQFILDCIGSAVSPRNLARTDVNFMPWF

| Binder | binding result |
| --- | --- |
| Taf12 (natural protein, S. cerevisiae, UniProt Q03761 1-539, looked up, Taf12, S. cerevisiae, subunit of the SAGA core module, endogenous subunit of the purified native complex; Subunit of native SAGA purified through a 3xFLAG tag; The complex was mildly cross-linked with glutaraldehyde (GraFix) before cryo-EM; also called Taf12 core subunit; source: endogenous, S. cerevisiae, purified as part of native SAGA (anti-FLAG M2 resin, FLAG peptide elution, GraFix)) MSSNPENSGVNANNNTGTGNADAITGAQQNMVLQPRQLQEMAAKFRTLLTEARNVGETTPRGKELMFQAAKIKQVYDALTLNRRRQQAAQAYNNTSNSNSSNPASIPTENVPNSSQQQQQQQQQTRNNSNKFSNMIKQVLTPEENQEYEKLWQNFQVRHTSIKEKETYLKQNIDRLEQEINKQTDEGPKQQLQEKKIELLNDWKVLKIEYTKLFNNYQNSKKTFYVECARHNPALHKFLQESTQQQRVQQQRVQQQQQQQQQQQQQQQQQQQQQQQRQGQNQRKISSSNSTEIPSVTGPDALKSQQQQQNTITATNNPRGNVNTSQTEQSKAKVTNVNATASMLNNISSSKSAIFKQTEPAIPISENISTKTPAPVAYRSNRPTITGGSAMNASALNTPATTKLPPYEMDTQRVMSKRKLRELVKTVGIDEGDGETVIDGDVEELLLDLADDFVTNVTAFSCRLAKHRKSDNLEARDIQLHLERNWNIRIPGYSADEIRSTRKWNPSQNYNQKLQSITSDKVAAAKNNGNNVASLNTKK | binds |
| Spt20 (natural protein, S. cerevisiae, UniProt P50875 1-604, looked up, Spt20, S. cerevisiae, subunit of the SAGA core module, endogenous subunit of the purified native complex; Subunit of native SAGA purified through a 3xFLAG tag; The complex was mildly cross-linked with glutaraldehyde (GraFix) before cryo-EM; also called Spt20 core subunit; source: endogenous, S. cerevisiae, purified as part of native SAGA (anti-FLAG M2 resin, FLAG peptide elution, GraFix)) MSANSPTGNDPHVFGIPVNATPSNMGSPGSPVNVPPPMNPAVANVNHPVMRTNSNSNANEGTRTLTREQIQQLQQRQRLLLQQRLLEQQRKQQALQNYEAQFYQMLMTLNKRPKRLYNFVEDADSILKKYEQYLHSFEFHIYENNYKICAPANSRLQQQQKQPELTSDGLILTKNNETLKEFLEYVARGRIPDAIMEVLRDCNIQFYEGNLILQVYDHTNTVDVTPKENKPNLNSSSSPSNNNSTQDNSKIQQPSEPNSGVANTGANTANKKASFKRPRVYRTLLKPNDLTTYYDMMSYADNARFSDSIYQQFESEILTLTKRNLSLSVPLNPYEHRDMLEETAFSEPHWDSEKKSFIHEHRAESTREGTKGVVGHIEERDEFPQHSSNYEQLMLIMNERTTTITNSTFAVSLTKNAMEIASSSSNGVRGASSSTSNSASNTRNNSLANGNQVALAAAAAAAAVGSTMGNDNNQFSRLKFIEQWRINKEKRKQQALSANINPTPFNARISMTAPLTPQQQLLQRQQQALEQQQNGGAMKNANKRSGNNATSNNNNNNNNLDKPKVKRPRKNAKKSESGTPAPKKKRMTKKKQSASSTPSSTTMS | binds |
